In patent publication US20170355769A1 (AbbVie / Abbott, published 2017):

T1: Human full length B7-H3 (human, UniProt Q5ZPR3 29-534)
T1 sequence: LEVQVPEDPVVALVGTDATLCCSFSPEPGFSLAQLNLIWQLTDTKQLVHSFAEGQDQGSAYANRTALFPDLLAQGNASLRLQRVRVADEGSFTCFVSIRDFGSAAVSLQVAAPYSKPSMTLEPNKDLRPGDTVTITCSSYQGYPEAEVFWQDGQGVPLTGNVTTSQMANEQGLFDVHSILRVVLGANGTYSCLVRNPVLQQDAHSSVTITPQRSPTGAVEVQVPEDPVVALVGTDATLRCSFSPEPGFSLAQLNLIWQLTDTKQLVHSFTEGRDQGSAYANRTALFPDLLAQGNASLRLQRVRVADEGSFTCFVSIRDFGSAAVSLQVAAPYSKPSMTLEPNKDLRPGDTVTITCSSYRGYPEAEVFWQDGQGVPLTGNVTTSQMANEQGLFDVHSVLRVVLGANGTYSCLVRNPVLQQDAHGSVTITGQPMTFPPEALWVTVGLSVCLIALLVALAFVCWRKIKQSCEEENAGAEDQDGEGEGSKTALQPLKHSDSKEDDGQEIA

T2: hB7-H3 (ELISA antigen of Tables 17 and 20) (human, UniProt Q5ZPR3 29-466, limits assumed)
T2 sequence: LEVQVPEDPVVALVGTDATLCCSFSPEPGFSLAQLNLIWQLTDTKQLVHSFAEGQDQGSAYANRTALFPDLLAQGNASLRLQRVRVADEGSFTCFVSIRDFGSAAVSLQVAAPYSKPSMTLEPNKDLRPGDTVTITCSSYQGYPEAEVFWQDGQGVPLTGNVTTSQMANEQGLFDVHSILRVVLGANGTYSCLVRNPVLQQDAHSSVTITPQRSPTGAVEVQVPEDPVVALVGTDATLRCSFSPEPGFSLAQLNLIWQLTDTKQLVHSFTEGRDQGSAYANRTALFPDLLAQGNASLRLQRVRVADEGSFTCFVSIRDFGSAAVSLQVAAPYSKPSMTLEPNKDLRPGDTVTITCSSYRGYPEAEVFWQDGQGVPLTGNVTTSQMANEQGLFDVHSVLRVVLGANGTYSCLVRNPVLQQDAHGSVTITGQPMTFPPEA

T3: Human B7-H3-ECD (His tag) (human, UniProt Q5ZPR3 29-461)
T3 construct: SPR analyte; also called huB7-H3; soluble ECD of human B7-H3
T3 sequence: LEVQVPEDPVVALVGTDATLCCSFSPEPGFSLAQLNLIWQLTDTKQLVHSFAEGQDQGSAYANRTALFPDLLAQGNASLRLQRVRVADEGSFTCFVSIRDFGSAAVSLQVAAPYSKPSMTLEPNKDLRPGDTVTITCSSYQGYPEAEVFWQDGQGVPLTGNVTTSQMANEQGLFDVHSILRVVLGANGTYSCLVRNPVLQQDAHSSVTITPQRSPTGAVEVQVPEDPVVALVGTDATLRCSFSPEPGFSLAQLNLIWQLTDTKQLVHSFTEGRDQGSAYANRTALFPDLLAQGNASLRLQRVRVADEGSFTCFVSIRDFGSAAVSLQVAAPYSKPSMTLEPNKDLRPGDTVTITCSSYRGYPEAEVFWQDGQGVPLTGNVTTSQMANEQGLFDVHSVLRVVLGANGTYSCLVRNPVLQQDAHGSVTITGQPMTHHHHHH


Legend:
[1] = molecular target: T4, Cynomolgous B7-H3 on cells (cynomolgus); assay: FACS, 3T12 transfectants
T4 construct: whole, on cells; also called cyB7-H3; cyno B7-H3

[2] = molecular target: T1, Human full length B7-H3; assay: cell-based or functional assay
[3] = molecular target: T2, hB7-H3 (ELISA antigen of Tables 17 and …); assay: ELISA
[4] = molecular target: T3, Human B7-H3-ECD (His tag); assay: SPR Biacore, naked mAb
Text: Biacore T200 SPR instruments were used to measure the binding kinetics of human B7-H3 (analyte) binding to various mAbs (ligands). The assay format was Fc-based capture via immobilized anti-mouse (Fc) (Pierce 31170) or immobilized anti-human (Fc) (Pierce 31125). A standard amine coupling protocol was employed to immobilize the capture reagents via primary amines to the carboxy-methyl (CM) dextran surface of CM5 sensorchips (Biacore); capture antibodies were coupled to a level of approximately 5000RU. For binding kinetic measurements the assay buffer was HBS-EP+ (Biacore): 10 mM Hepes, pH7.4, 150 mM NaCl, 3 mM EDTA, 0.05% polysorbate 20. During the assay, all measurements were referenced against the capture surface alone. Each assay cycle consisted of the following steps: 1) Capture of ligand to approximately 50RU; 2) Analyte injection over both reference and test surface, 240 μL at 80 μL/min, after which the dissociation was monitored for 900 seconds at 80 μL/min; 3) Regeneration of capture surface with low pH glycine. […] Data were processed and fit to a 1:1 binding model using Biacore T200 Evaluation Software to determine the binding kinetic rate constants, kₐ (on-rate) and kd (off-rate), and the equilibrium dissociation constant (affinity, KD).
(§1) These variants were further characterized for binding by SPR and as ADCs conjugated to the Bcl-xL inhibitor synthon (linker warhead) CZ. […] An ADC comprising chAb3 conjugated to synthon CZ was used as a control.

[5] = molecular target: T1, Human full length B7-H3; assay: FACS (Example 6 method)
Description: (§2) Cells were harvested from flasks when approximately 80% confluent using Gibco® Cell Dissociation Buffer. Cells were washed once in PBS/1% FBS (FACS buffer) then resuspended at 2.5×10⁶ cells/mL in FACS buffer. 100 μL of cells/well were added to a round bottom 96-well plate. 10 μL of a 10× concentration of mAb/ADC (final concentrations are indicated the figures). Wells were washed twice with FACS buffer and resuspended in 50 μL of secondary Ab (AlexaFluor 488) diluted in FACS buffer. The plate was incubated at 4° C. for one hour and washed twice with FACS buffer. Cells were resuspended in 100 μL of PBS/1% formaldehyde and analyzed on a Becton Dickinson LSRII flow cytometer. Data was analyzed using WinList flow cytometry analysis software.
as §1

[6] = molecular target: T1, Human full length B7-H3; assay: FACS, NCI-H1650 cells
Description: To generate purified chimeric antibodies, expression vectors were transiently transfected into HEK293 6E suspension cell cultures in a ratio of 60% to 40% light to heavy chain construct. 1 mg/ml of polyethylenimine (PEI) or 2.6 μL/mL of Expifectamine was used to transfect the cells. Cell supernatants were harvested after five days in shaking flasks, spun down to pellet cells, and filtered through 0.22 μm filters to separate IgG from culture contaminants. Antibody-containing supernatants were purified on Akta Pure using protein A mAb SelectSure. Columns were equilibrated in PBS pH 7.4, supernatants were then passed through the column and a wash was performed with PBS pH 7.4. IgG were eluted with 0.1 M acetic acid pH 3.5 and collected in several aliquots. Fractions containing IgG were pooled and dialyzed in PBS overnight at 4° C.
as §2

[7] = molecular target: T1, Human full length B7-H3; assay: FACS, cell surface human B7-H3 (as Example 6)
Description: as §2
Nine anti-B7-H3 chimeric antibodies were conjugated to the Bcl-xL inhibiting (Bcl-xLi) synthon CZ (Example 2.1) using conjugation Method A described below. The resulting ADCs (anti-B7-H3 antibodies conjugated to synthon CZ) were tested for binding to cell surface human B7-H3 by FACS (as described in Example 6) and for cell cytotoxicity in cell lines expressing B7-H3. […] Table 6 provides cell surface binding and cytotoxicity activity of anti-B7-H3 chimera ADCs against breast cancer cell HCC38 expressing human B7-H3.

Binder | Kd [4] | EC50 [5] | further results
huAb3v2.5-CZ (antibody, human IgG1, kappa, L234A L235A, V domains shown, synthon CZ on reduced interchain Cys) VH: EVQLVQSGAEVKKPGSSVKVSCKASGYTFSSYWMHWVRQAPGQGLEWIGLIHPESGSTNYNEMFKNRATLTVDRSTSTAYMELSSLRSEDTAVYYCAGGGRLYFDYWGQGTTVTVSS VL: DIVMTQSPLSLPVTPGEPASISCRSSQSLVHSNRDTYLRWYLQKPGQSPQLLIYKVSNRFSGVPDRFSGSGSGTDFTLKISRVEAEDVGVYYCSQSTHVPYTFGGGTKVEIKR | – | – | EC50 [1]: 4860 pM; EC50 nM H1650 (tumor cell cytotoxicity) [2]: 0.4 nM; EC50 [3]: 130 pM
huAb3v6 (antibody, V domains shown, humanized IgG) VH: EVQLVQSGAEVKKPGSSVKVSCKASGYTFSSYWMHWVRQAPGQGLEWIGLIHPDSGSTNYNEMFKNRATLTVDRSTSTAYVELSSLRSEDTAVYFCAGGGRLYFDYWGQGTTVTVSS VL: DVVMTQSPLSLPVTPGEPASISCRSSQSLVHSNGDTYLRWYLQKPGQSPQLLIYKVSNRFSGVPDRFSGSGSGTDFTLKISRVEAEDVGVYYCSQSTHVPYTFGGGTKVEIK | 200 pM | – | –
huAb3v1-CZ (antibody, V domains shown, synthon CZ on reduced interchain Cys, ADC, DAR 3.6) VH: EVQLVQSGAEVKKPGSSVKVSCKASGYTFSSYWMHWVRQAPGQGLEWMGLIHPDSGSTNYNEMFKNRVTITADKSTSTAYMELSSLRSEDTAVYYCARGGRLYFDYWGQGTTVTVSS VL: DIVMTQSPLSLPVTPGEPASISCRSSQSLVHSNGDTYLRWYLQKPGQSPQLLIYKVSNRFSGVPDRFSGSGSGTDFTLKISRVEAEDVGVYYCSQSTHVPYTFGGGTKVEIK | – | 1450 pM | –
huAb3v3-CZ (antibody, V domains shown, synthon CZ on reduced interchain Cys, ADC, DAR 3.6) VH: EVQLVQSGAEVKKPGSSVKVSCKASGYTFSSYWMHWVRQAPGQGLEWIGLIHPDSGSTNYNEMFKNRATLTVDRSTSTAYVELSSLRSEDTAVYFCAGGGRLYFDYWGQGTTVTVSS VL: DVVMTQSPLSLPVTPGEPASISCRSSQSLVHSNGDTYLRWYLQKPGQSPQLLIYKVSNRFSGVPDRFSGSGSGTDFTLKISRVEAEDVGVYFCSQSTHVPYTFGGGTKVEIK | – | 1680 pM | –
huAb3v5-CZ (antibody, V domains shown, synthon CZ on reduced interchain Cys, ADC, DAR 3.1) VH: EVQLVQSGAEVKKPGSSVKVSCKASGYTFSSYWMHWVRQAPGQGLEWIGLIHPDSGSTNYNEMFKNRATLTVDRSTSTAYMELSSLRSEDTAVYYCAGGGRLYFDYWGQGTTVTVSS VL: DVVMTQSPLSLPVTPGEPASISCRSSQSLVHSNGDTYLRWYLQKPGQSPQLLIYKVSNRFSGVPDRFSGSGSGTDFTLKISRVEAEDVGVYYCSQSTHVPYTFGGGTKVEIK | – | 850 pM | –
huAb3v6-CZ (antibody, V domains shown, synthon CZ on reduced interchain Cys, ADC, DAR 3.3) VH: EVQLVQSGAEVKKPGSSVKVSCKASGYTFSSYWMHWVRQAPGQGLEWIGLIHPDSGSTNYNEMFKNRATLTVDRSTSTAYVELSSLRSEDTAVYFCAGGGRLYFDYWGQGTTVTVSS VL: DVVMTQSPLSLPVTPGEPASISCRSSQSLVHSNGDTYLRWYLQKPGQSPQLLIYKVSNRFSGVPDRFSGSGSGTDFTLKISRVEAEDVGVYYCSQSTHVPYTFGGGTKVEIK | – | 1780 pM | –
huAb3v4 (antibody, V domains shown, humanized IgG) VH: EVQLVQSGAEVKKPGSSVKVSCKASGYTFSSYWMHWVRQAPGQGLEWMGLIHPDSGSTNYNEMFKNRVTITADKSTSTAYMELSSLRSEDTAVYYCARGGRLYFDYWGQGTTVTVSS VL: DVVMTQSPLSLPVTPGEPASISCRSSQSLVHSNGDTYLRWYLQKPGQSPQLLIYKVSNRFSGVPDRFSGSGSGTDFTLKISRVEAEDVGVYYCSQSTHVPYTFGGGTKVEIK | 570 pM | – | –
huAb3v3 (antibody, V domains shown, humanized IgG) VH: EVQLVQSGAEVKKPGSSVKVSCKASGYTFSSYWMHWVRQAPGQGLEWIGLIHPDSGSTNYNEMFKNRATLTVDRSTSTAYVELSSLRSEDTAVYFCAGGGRLYFDYWGQGTTVTVSS VL: DVVMTQSPLSLPVTPGEPASISCRSSQSLVHSNGDTYLRWYLQKPGQSPQLLIYKVSNRFSGVPDRFSGSGSGTDFTLKISRVEAEDVGVYFCSQSTHVPYTFGGGTKVEIK | 230 pM | – | –
chAb3 (antibody, IgG1, V domains shown, chimeric, huIgG1/k) VH: QVQLQQPGAELVKPGASVKLSCKASGYTFSSYWMHWVKQRPGQGLEWIGLIHPDSGSTNYNEMFKNKATLTVDRSSSTAYVQLSSLTSEDSAVYFCAGGGRLYFDYWGQGTTLTVSS VL: DVVMTQTPLSLPVSLGDQASISCRSSQSLVHSNGDTYLRWYLQKPGQSPKLLIYKVSNRFSGVPDRFSGSGSGTDFTLKITRVEAEDLGVYFCSQSTHVPYTFGGGTKLEIK | 19000 pM | – | EC50 [6]: 610 pM
chAb3-CZ (antibody, IgG1, V domains shown, synthon CZ on reduced interchain Cys) VH: QVQLQQPGAELVKPGASVKLSCKASGYTFSSYWMHWVKQRPGQGLEWIGLIHPDSGSTNYNEMFKNKATLTVDRSSSTAYVQLSSLTSEDSAVYFCAGGGRLYFDYWGQGTTLTVSS VL: DVVMTQTPLSLPVSLGDQASISCRSSQSLVHSNGDTYLRWYLQKPGQSPKLLIYKVSNRFSGVPDRFSGSGSGTDFTLKITRVEAEDLGVYFCSQSTHVPYTFGGGTKLEIK | – | 610 pM | EC50 [7]: 650 pM
